Measured values from publication doi:10.1101/2021.12.09.472013 (bioRxiv, 2021).

B1: SS-torsinA^WT-EGFP (natural protein, UniProt O14656 21-332, looked up)
chain: VEPISLGLALAGVLTGYIYPRLYCLFAECCGQKRSLSREALQKDLDDNLFGQHLAKKIILNAVFGFINNPKPKKPLTLSLHGWTGTGKNFVSKIIAENIYEGGLNSDYVHLFVATLHFPHASNITLYKDQLQLWIRGNVSACARSIFIFDEMDKMHAGLIDAIKPFLDYYDLVDGVSYQKAMFIFLSNAGAERITDVALDFWRSGKQREDIKLKDIEHALSVSVFNNKNSGFWHSSLIDRNLIDYFVPFLPLEYKHLKMCIRVEMQSRGYEIDEDIVSRVAEEMTFFPKEERVFSDKGCKTVFTKLDYYYDD
B2: SS-EGFP-torsinA^WT (natural protein, UniProt O14656 21-332, looked up)
chain: B1 chain
B3: SS-EGFP-torsinA^50-332 (domain or fragment, UniProt O14656 50-332, looked up)
chain: CGQKRSLSREALQKDLDDNLFGQHLAKKIILNAVFGFINNPKPKKPLTLSLHGWTGTGKNFVSKIIAENIYEGGLNSDYVHLFVATLHFPHASNITLYKDQLQLWIRGNVSACARSIFIFDEMDKMHAGLIDAIKPFLDYYDLVDGVSYQKAMFIFLSNAGAERITDVALDFWRSGKQREDIKLKDIEHALSVSVFNNKNSGFWHSSLIDRNLIDYFVPFLPLEYKHLKMCIRVEMQSRGYEIDEDIVSRVAEEMTFFPKEERVFSDKGCKTVFTKLDYYYDD
B4: SS-EGFP-torsinA^ΔNTD (natural protein, UniProt O14656 21-332, looked up)
chain: VEPISCLFAECCGQKRSLSREALQKDLDDNLFGQHLAKKIILNAVFGFINNPKPKKPLTLSLHGWTGTGKNFVSKIIAENIYEGGLNSDYVHLFVATLHFPHASNITLYKDQLQLWIRGNVSACARSIFIFDEMDKMHAGLIDAIKPFLDYYDLVDGVSYQKAMFIFLSNAGAERITDVALDFWRSGKQREDIKLKDIEHALSVSVFNNKNSGFWHSSLIDRNLIDYFVPFLPLEYKHLKMCIRVEMQSRGYEIDEDIVSRVAEEMTFFPKEERVFSDKGCKTVFTKLDYYYDD

Target: the molecule itself
Test: fluorescence fluctuation spectroscopy

| Protein | normalized brightness b | stoichiometry N |
| --- | --- | --- |
| B1 | > 3 | – |
| B2 | – | ≥ 3 |
| B3 | ~8 | – |
| B4 | ~13 | – |
